{"source": "patent US20050175986A1", "about": "(SMIT KLINE BEECHAM, published 2005)", "target": "T1, recombinant F protein of Respiratory Syncytial Virus (Respiratory Syncytial Virus, UniProt P03420 26-524)", "T1 construct": "Recombinant F-protein as described in P. Tsui et al, J. Immunol; 157:772-780 (1996); Coated on plastic in the ELISAs; also called recombinant RSV F-protein; rF protein", "T1 sequence (P03420 26-524 limits assumed)": "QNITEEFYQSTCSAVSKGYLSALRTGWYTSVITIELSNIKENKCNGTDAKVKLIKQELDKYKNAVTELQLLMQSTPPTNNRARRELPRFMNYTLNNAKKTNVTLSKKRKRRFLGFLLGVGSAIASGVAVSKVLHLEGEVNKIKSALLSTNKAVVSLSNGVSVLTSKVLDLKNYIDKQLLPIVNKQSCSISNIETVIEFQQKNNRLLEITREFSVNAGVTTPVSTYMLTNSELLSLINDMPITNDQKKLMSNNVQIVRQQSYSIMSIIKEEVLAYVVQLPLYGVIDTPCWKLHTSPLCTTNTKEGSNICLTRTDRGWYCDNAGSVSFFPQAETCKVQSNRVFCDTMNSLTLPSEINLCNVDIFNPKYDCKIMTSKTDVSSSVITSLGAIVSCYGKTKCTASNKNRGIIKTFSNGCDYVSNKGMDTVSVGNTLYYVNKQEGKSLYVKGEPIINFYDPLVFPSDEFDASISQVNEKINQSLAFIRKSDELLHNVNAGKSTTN", "assay": "solid phase ELISA on coated recombinant F protein", "procedure": "Binding of the Gλ-1 mABs to recombinant F protein was measured in a standard solid phase ELISA. Antigen diluted in PBS pH 7.0 was adsorbed onto polystyrene round-bottom microplates (Dynatech, Immunolon II) for 18 hours. Wells were then aspirated and blocked with 0.5% boiled casein (BC) in PBS containing 1% Tween 20 […] for two hours. Antibodies (50 μl/well) were diluted to varying concentrations in PBS/0.5% BC containing 0.025% Tween 20 and incubated in antigen coated wells for one hour. Plates were washed three times with PBS containing 0.05% Tween 20, using a Titertek 320 microplate washer, followed by addition of HRP-labelled protein A/G (50 μl) diluted 1:5000. After washing three times, TMBlue substrate (TSI, #TM102) was added and plates were incubated an additional 15 minutes. The reaction was stopped by addition of 1 N H₂SO₄ and absorbance read at 450 nm using a Biotek ELISA reader.\nBinding of the Gλ-1 mABs to rF protein was inhibited by mAb B4, for which the F protein amino acids critical for antigen recognition are amino acids 268, 272 and 275 of SEQ ID NO: 20). Binding of the Gλ-1 mABs to rF protein was not inhibited by mAb RSMU19, for which F protein amino acid 429 of SEQ ID NO: 20 is critical for antigen recognition."}
{"binder": "Gλ-1B monoclonal antibody (antibody, human IgG1, V domains shown, Full length human IgG1, lambda light chain; made in COS and CHO cells; also called Gλ-1 mAB B; mAB B) VH: EVQLVESGGGLVQPGGSLRLSCAASGVSLSGYKMNWVRQAPGKGLEWVSSITGMSNYIHYSDSVKGRFTISRDNAMNSLYLQMNSLTAEDTGVYYCATQPGELAPFDHWGQGTLVTVSS VL: QSVLTQPPSVSAAPGQKVTISCTGSSSNLGAGYDVHWYRQLPGTAPKLLIYDNNNRPSGVPDRFSGSKSGPSASLAISGLQAEDEADYYCQSYDSSLNGYVFGTGTQLTVLG", "values": [{"measurement": "EC50", "value": 2.6, "unit": "ng/mL"}]}
